Test results from patent US20040018971A1 (published 2004).
Blank lines part the entries; values can stand above or below the binder they belong to.

Legend:
[1] = target: HLA-A*0301 (purified HLA class I molecule) (human); assay: competition with 125I-labelled probe peptide on purified HLA-A*0301, gel filtration
[2] = target: T1, HLA-A*0301 (purified HLA class I molecule) (human); assay: competition with 125I-labelled probe peptide for purified HLA-A*0301, gel filtration
T1 construct: also called HLA-A3

HLA-B*3501 [3] = target: HLA-B*3501 (human); assay: competition vs 125I-labelled probe peptide, purified HLA, gel filtration
HLA-B*0702 [4] = target: HLA-B*0702 (human); assay: as above
HLA-B*5301 [5] = target: HLA-B*5301 (human); assay: as above
HLA-B*5101 [6] = target: HLA-B*5101 (human); assay: as above
HLA-B*5401 [7] = target: HLA-B*5401 (human); assay: as above
HLA-B*0702 [8] = target: HLA-B*0702 (human); assay: competition with 125I probe peptide, purified HLA
HLA-B*5301 [9] = target: HLA-B*5301 (human); assay: competition with 125I probe peptide, purified HLA
HLA-B*5401 [10] = target: HLA-B*5401 (human); assay: competition with 125I probe peptide, purified HLA
HLA-B*3501 [11] = target: HLA-B*3501 (human); assay: competition with 125I probe peptide, purified HLA
HLA-B*5101 [12] = target: HLA-B*5101 (human); assay: competition with 125I probe peptide, purified HLA

relative binding ratio (IC50 of standard peptide / IC50 of test peptide) [1]: 0.0003 ratio
Binder: RGTQLFEDNY (Synthetic peptide) [HER2/NEU A03 motif peptide, position 103, 10 amino acids]

relative binding ratio [2]: 0.0004 ratio (IC50 of standard peptide / IC50 of test peptide)
Binder: ALTLIDTNR (also called Her2/neu.180 9-mer) [HER2/neu peptide, position 180, 9 amino acids (ALTLIDTNR)]

relative binding ratio (IC50 of standard peptide / IC50 of test peptide) [1]: 0.0004 ratio
Binder: TLIDTNRSR (Synthetic peptide) [HER2/NEU A03 motif peptide, position 182, 9 amino acids]

relative binding ratio (IC50 of standard peptide / IC50 of test peptide) [1]: 0.0002 ratio
Binder: SMPNPEGRY (Synthetic peptide) [HER2/NEU A03 motif peptide, position 281, 9 amino acids]

relative binding ratio [2]: 0.0002 ratio (IC50 of standard peptide / IC50 of test peptide)
Binder: CTGTDMKLR (also called Her2/neu.26 9-mer) [HER2/neu peptide, position 26, 9 amino acids (CTGTDMKLR)]

relative binding ratio (IC50 of standard peptide / IC50 of test peptide) [1]: 0.0001 ratio
B1: HER2/NEU A03 motif peptide, position 402, 10 amino acids (peptide)
peptide: TLEEITGYLY
notes: Synthetic peptide; also called Her2/neu.402

relative binding ratio [2]: 0.0002 ratio (IC50 of standard peptide / IC50 of test peptide)
Binder: CVTACPYNY (also called Her2/neu.295 9-mer) [HER2/neu peptide, position 295, 9 amino acids (CVTACPYNY)]

relative binding ratio [2]: 0.0003 ratio (IC50 of standard peptide / IC50 of test peptide)
Binder: CLLDHVRENR (also called Her2/neu.805 10-mer) [HER2/neu peptide, position 805, 10 amino acids (CLLDHVRENR)]

relative binding ratio [2]: 0.0004 ratio (IC50 of standard peptide / IC50 of test peptide)
Binder: AMPNQAQMR (also called Her2/neu.705 9-mer) [HER2/neu peptide, position 705, 9 amino acids (AMPNQAQMR)]

relative binding ratio [2]: 0.0008 ratio (IC50 of standard peptide / IC50 of test peptide)
Binder: ASCVTACPY [HER2/neu peptide, position 293, 9 amino acids (ASCVTACPY)]

IC50 (HLA-B*3501 [3]): 4240 nM
IC50 (HLA-B*0702 [4]): 39 nM
IC50 (HLA-B*5301 [5]): 332 nM
IC50 (HLA-B*5101 [6]): 13 nM
IC50 (HLA-B*5401 [7]): 50 nM
B2: Her2/neu.1157.F1I11 (peptide)
peptide: FPAARPAGATI
notes: 11-mer analog of the HER2/neu peptide starting at position 1157

IC50 (HLA-B*3501 [3]): 360 nM
IC50 (HLA-B*0702 [4]): 3.9 nM
IC50 (HLA-B*5301 [5]): 2910 nM
IC50 (HLA-B*5101 [6]): 239 nM
B3: Her2/neu.1157.F1 (peptide)
peptide: FPAARPAGATL
notes: as for B2

IC50 (HLA-B*3501 [3]): 2880 nM
IC50 (HLA-B*0702 [4]): 141 nM
IC50 (HLA-B*5301 [5]): 465 nM
IC50 (HLA-B*5101 [6]): 50 nM
IC50 (HLA-B*5401 [7]): 15 nM
B4: Her2/neu.921.F1I11 (peptide)
peptide: FPYDGIPAREI
notes: 11-mer B7 supermotif analog of the HER2/neu peptide starting at position 921

relative binding ratio (IC50 of standard peptide / IC50 of test peptide) [1]: -0.0002 ratio
Binder: SSEDCQSLTR (Synthetic peptide) [HER2/NEU A03 motif peptide, position 208, 10 amino acids]

IC50 (HLA-B*3501 [3]): 240 nM
IC50 (HLA-B*0702 [4]): 229 nM
IC50 (HLA-B*5101 [6]): 167 nM
IC50 (HLA-B*5401 [7]): 28 nM
B5: Her2/neu.966.F1I11 (peptide)
peptide: FPRFRELVSEI
notes: 11-mer analog of the HER2/neu peptide starting at position 966

IC50 (HLA-B*3501 [3]): 10 nM
IC50 (HLA-B*0702 [4]): 3.7 nM
IC50 (HLA-B*5301 [5]): 10 nM
IC50 (HLA-B*5101 [6]): 579 nM
IC50 (HLA-B*5401 [7]): 200 nM
B6: Her2/neu.995.F1 (peptide)
peptide: FPASPLDSTF
notes: 10-mer analog of the HER2/neu peptide starting at position 995

relative binding ratio [2]: 0.0003 ratio (IC50 of standard peptide / IC50 of test peptide)
Binder: CSKPCARVCY (also called Her2/neu.334 10-mer) [HER2/neu peptide, position 334, 10 amino acids (CSKPCARVCY)]

relative binding ratio (IC50 of standard peptide / IC50 of test peptide) [1]: 0.035 ratio
Binder: RVLQGLPREY (Synthetic peptide) [HER2/NEU A03 motif peptide, position 545, 10 amino acids]

IC50 (HLA-B*0702 [8]): 1.6 nM
IC50 (HLA-B*5301 [9]): 52 nM
IC50 (HLA-B*5401 [10]): 1.6 nM
IC50 (HLA-B*3501 [11]): 200 nM
IC50 (HLA-B*5101 [12]): 13 nM
Binder: FPLNNTTPI (analog peptide) [Her2/neu.121.F1I9]

IC50 (HLA-B*0702 [8]): 0.2 nM
IC50 (HLA-B*5301 [9]): 1070 nM
IC50 (HLA-B*5401 [10]): 1.1 nM
IC50 (HLA-B*3501 [11]): 40 nM
IC50 (HLA-B*5101 [12]): 7.1 nM
Binder: FPLNNTTPV (analog peptide) [Her2/neu.121.F1]

IC50 (HLA-B*3501 [3]): 277 nM
IC50 (HLA-B*0702 [4]): 34 nM
IC50 (HLA-B*5101 [6]): 1900 nM
IC50 (HLA-B*5401 [7]): 1.5 nM
B7: Her2/neu.1155.F1 (peptide)
peptide: FPLPAARPA
notes: 9-mer analog of the HER2/neu peptide starting at position 1155

IC50 (HLA-B*3501 [3]): 600 nM
IC50 (HLA-B*0702 [4]): 6.5 nM
IC50 (HLA-B*5301 [5]): 282 nM
IC50 (HLA-B*5101 [6]): 7.1 nM
IC50 (HLA-B*5401 [7]): 3.8 nM
B8: Her2/neu.1155.F1I9 (peptide)
peptide: FPLPAARPI
notes: as for B7

relative binding ratio [2]: 0.0021 ratio (IC50 of standard peptide / IC50 of test peptide)
Binder: CAAGCTGPK (also called Her2/neu.240 9-mer) [HER2/neu peptide, position 240, 9 amino acids (CAAGCTGPK)]

relative binding ratio [2]: 0.0003 ratio (IC50 of standard peptide / IC50 of test peptide)
Binder: AFSPAFDNLY (also called Her2/neu.1212 10-mer) [HER2/neu peptide, position 1212, 10 amino acids (AFSPAFDNLY)]

IC50 (HLA-B*0702 [8]): 86 nM
IC50 (HLA-B*5301 [9]): 42 nM
IC50 (HLA-B*5401 [10]): 4 nM
IC50 (HLA-B*3501 [11]): 655 nM
IC50 (HLA-B*5101 [12]): 19 nM
Binder: FPHQALLHTI (analog peptide) [Her2/neu.488.F1I10]
